Values of other authors, collected in US20020119915A1, “Nutritional intervention composition containing a source of proteinase inhibitor extending post meal satiety” (priority 1999, published 2002).

Tested on: humans
Details: injection, 1981 study

B1: Cholecystokinin (peptide, UniProt P06307 21-115, looked up)
Cholecystokinin: QPVPPADPAGSGLQRAEEAPRRQLRVSQRTDGESRAHLGALLARYIQQARKAPSGRMSIVKNLQNLDPSHRISDRDYMGWMDFGRRSAEEYEYPS
modifications: Cholecystokinin
  Decrease of food intake: 16%
